Test results from paper PMC314469, “Protein Interaction Networks by Proteome Peptide Scanning” (PLoS Biology, 2004).

T1: Boi1 SH3 (BOI1_YEAST), P38041
T1 chain: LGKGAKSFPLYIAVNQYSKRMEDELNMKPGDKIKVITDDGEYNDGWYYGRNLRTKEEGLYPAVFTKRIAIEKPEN

T2: Yhr016c SH3 (YSC84_YEAST), P32793
T2 chain: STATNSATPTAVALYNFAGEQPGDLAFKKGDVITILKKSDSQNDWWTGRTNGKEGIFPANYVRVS

T3: Yfr024 SH3 (LSB3_YEAST), P43603
T3 chain: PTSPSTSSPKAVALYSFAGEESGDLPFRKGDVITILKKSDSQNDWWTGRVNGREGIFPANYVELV

T4: Rvs167 SH3 (RV167_YEAST), P39743
T4 chain: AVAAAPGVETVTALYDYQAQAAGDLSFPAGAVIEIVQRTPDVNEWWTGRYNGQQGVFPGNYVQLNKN

T5: Boi2 SH3 (BOI2_YEAST), P39969
T5 chain: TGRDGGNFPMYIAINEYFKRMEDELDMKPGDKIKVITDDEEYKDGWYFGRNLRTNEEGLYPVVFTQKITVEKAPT

B1: YBR108W 517-530 (peptide)
chain: IMPPPKPFRHGLDS
B2: YCL027W 390-403 (peptide)
chain: IPTPSKPLKKRKKR
B3: YOR384W 132-145 (peptide)
chain: IRYPVTPNKASLDR
B4: YLR240W 75-88 (peptide)
chain: IYTPYIPFRNSRTW
B5: YBR122C 41-54 (peptide)
chain: ITLPRRPAKKIQLG
B6: YOL087C 29-42 (peptide)
chain: ILYPDIPGKNYFLT
B7: YMR137C 188-201 (peptide)
chain: ISNPSSPAKTKRDI
B8: YIL010W 28-41 (peptide)
chain: ISTPEVPKKKIKTG
B9: YGR094W 408-421 (peptide)
chain: IQHPFLPRKIPIIT
B10: YIR010W 422-435 (peptide)
chain: KALPKEPKKLLPNS
B11: YDR501W 316-329 (peptide)
chain: INQPSTPKKLKRKS
B12: YGL144C 459-472 (peptide)
chain: ILLPPLPERAYIMD
B13: YGL073W 653-666 (peptide)
chain: ILSPGYPNKSFNNK
B14: YDR409W 859-872 (peptide)
chain: IVNPFIPRRPYSNV
B15: YLR233C 283-296 (peptide)
chain: ILTPDFPERRRLMK
B16: YMR192W 122-135 (peptide)
chain: ITSPPLPPRADSIE
B17: YPR185W 368-381 (peptide)
chain: ISRPVQPFKVGSIG
B18: YOR346W 673-686 (peptide)
chain: KDAPIEPPKYMGMG
B19: YFR019W 390-403 (peptide)
chain: ISTPPPPPKMAIPA

Target: T1, Boi1 SH3 (BOI1_YEAST), P38041
Assay: SPOT array

normalised SPOT signal, Boehringer light units (BLU); mean over the file's lines of this peptide | Binder
258 | B1
97.5 | B2
86.7 | B3
5520 | B4
150 | B5
118 | B6
90.8 | B7
275 | B8
327 | B9
208 | B10
152 | B11
12.7 | B12
92.5 | B13
1120 | B14
8730 | B15
181 | B16
60.8 | B17
119 | B18
110 | B19

Target: T2, Yhr016c SH3 (YSC84_YEAST), P32793
Assay: SPOT array

normalised SPOT signal, Boehringer light units (BLU); mean over the file's lines of this peptide | Binder
35500 | B1
213 | B2
207 | B3
683 | B4
36800 | B5
115 | B6
130 | B7
226 | B8
250 | B9
2810 | B10
126 | B11
50600 | B12
282 | B13
1650 | B14
1780 | B15
93200 | B16
185 | B17
99.2 | B18
189 | B19

Target: T3, Yfr024 SH3 (LSB3_YEAST), P43603
Assay: SPOT array

normalised SPOT signal, Boehringer light units (BLU); mean over the file's lines of this peptide | Binder
30900 | B1
1580 | B2
94.5 | B3
3280 | B4
48600 | B5
116 | B6
108 | B7
4970 | B8
1120 | B9
284 | B10
2480 | B11
26200 | B12
293 | B13
7710 | B14
13700 | B15
39300 | B16
1120 | B17
43.8 | B18
335 | B19

Target: T4, Rvs167 SH3 (RV167_YEAST), P39743
Assay: SPOT array

normalised SPOT signal, Boehringer light units (BLU); mean over the file's lines of this peptide | Binder
1540 | B1
85 | B2
41.2 | B3
474 | B4
13700 | B5
32.7 | B6
17.6 | B7
0 | B8
35 | B9
44.4 | B10
62.6 | B11
14900 | B12
100 | B13
650 | B14
245 | B15
31300 | B16
22.7 | B17
39.9 | B18
26.6 | B19

Target: T5, Boi2 SH3 (BOI2_YEAST), P39969
Assay: SPOT array

normalised SPOT signal, Boehringer light units (BLU); mean over the file's lines of this peptide | Binder
222 | B1
50.2 | B2
166 | B3
1450 | B4
106 | B5
46.9 | B6
48.8 | B7
23.9 | B8
192 | B9
63.5 | B10
22.2 | B11
38.9 | B12
68.5 | B13
142 | B14
99.2 | B15
35.5 | B16
79.1 | B17
74.7 | B18
34.4 | B19
